# Biological target: KHK4083
# Test: BLI
# Settings: 100 nmol/L KHK4083; parent: est. 1.0; read off a plot
row,Substance,ratio to parent
1,Recombinant OX40-His protein (human OX40) (from UniProt P43489) D117A,28
2,Recombinant OX40-His protein (human OX40) (from UniProt P43489) T35A,0.6
3,Recombinant OX40-His protein (human OX40) (from UniProt P43489) Y36A,1.6
4,Recombinant OX40-His protein (human OX40) (from UniProt P43489) Y119A,21
5,Recombinant OX40-His protein (human OX40) (from UniProt P43489) D34A,0.8
6,Recombinant OX40-His protein (human OX40) (from UniProt P43489) D40A,2
7,Recombinant OX40-His protein (human OX40) (from UniProt P43489) H30A,0.6
8,Recombinant OX40-His protein (human OX40) (from UniProt P43489) K120A,16
9,Recombinant OX40-His protein (human OX40) (from UniProt P43489) S38A,1
10,Recombinant OX40-His protein (human OX40) (from UniProt P43489) S118A,6.4
11,Recombinant OX40-His protein (human OX40) (from UniProt P43489) K82A,15

# From article PMC12102438
